Residue numbers refer to the chain shown, from its start.
B1: PRT-624 (protein)
chain: MQITSVWTKGVTPLTPEQFRYNNEDVIHAPYLAHQGWYDITKAFDGKDNLLCGAATAGNMLHWWFDQNKTEIEAYLSKHPEKQKIIFNNQELFDLKAAIDTKDSQTNSQLFNYFRDKAFPNLSARQLGVMPDLVLDMFINGYYLNVFKTQSTDVNRDYDDKDKRGGIFDDVFGKGDQTTLLTARHDLKNKGLNDISTIIKQELTEGRALALSHTYANVSISHVINLWGADFNAEGNLEAIYVTDSDANASIGMKKYFVGINAHGHVAISAKKIEGENIGAQVLGLFTLSSGKDIWQKLSLEHHHHHH
B2: PRT-658 (protein)
chain: B1 chain with K96R, A97K, D100N, Q109A, D157P, D159Q, D170A, G173T, K174R
B3: PRT-661 (protein)
chain: B1 chain with H34N, A43T, A97K, D157P, D159Q, D170A, G173T, K174R, A247S, H263A
B4: PRT-646 (protein)
chain: B1 chain with D157P, D159Q, D170A, G173T, K174R, A183E, R184T, H185T, K188Y, N189G
B5: PRT-495 (protein)
chain: MVTSVWTKGVTPPTDFIKGEDVFHAPYKAGQGWYDITKAFDGGDDLLCGAATAGNMLHWWFDQNKEYIEAYLKKHPEKQKIMFGDQELLDVRKAINTKGSQKNSELFNYFRDKAFPNLSARRLGVMPDLVLDMFINGYYLNVTKTQTTDVNRTYQEKDKRGGIFDAVFTRGDQSKLLTSRHDFKEKGLKEISDLIKQELTEGKALGLSHTYANVRINHVINLWGADFDSDGNLKAIYVTDSDSNASIGMKKYFVGVNSAGKVAISAKEIKEDNIGAQVLGLFTLSTGQDIWNQTNLEHHHHHH
B6: PRT-635 (protein)
chain: MQITSVWTKGVTPLTPDQFTNQGEDVIHAPYTPNQGWYDITKAFDGKDNLLCGAATAGNMLHWWFDQNKTEIEAYLSKHPEKQKIIFNNQELFDLKAAIDTKDSQTNSQLFNYFRDKAFPNLSARQLGVMPDLVLDMFINGYYLNVFKTQSTDVNRPYQDKDKRGGIFDAVFTRGDQTTLLTARHDLKNKGLNDISTIIKQELTEGKALALSHTYANVSISHVINLWGADFNAEGNLEAIYVTDSDANASIGMKKYFVGINAHGHVAISAKKIEGENIGAQVLGLFTLSSGKDIWQKLSLEHHHHHH
B7: PRT-643 (protein)
chain: MQITSVWTKGVTPLTPEQFRYNNEDVIHAPYLAHQGWYDITKAFDGKDNLLCGAATAGNMLHWWFDQNKTEIEAYLSKHPEKQKIIFNNQELFDLKAAIDTKDSQTNSQLFNYFRDKAFPNLSARQLGVMPDLVLDMFINGYYLNVFKTQSTDVNRPYQDKDKRGGIFDAVFTRGDQTTLLTARHDLKNKGLNDISTIIKQELTEGRALALSHTYANVSISHVINLWGADFNAEGNLEAIYVTDSDANASIGMKKYKVGYNKDGRVAISAYKIEGENIGAQVLGLFTLSSGKDIWQKLSLEHHHHHH
B8: PRT-609 (protein)
chain: MQITSVWTKGVTPLTPEQFRYNNEDVIHAPYLAHQGWYDITKAFDRGDNLLCGAATAGNMLHWWFDQNKTEIEAYLSKHPEKQKIIFNNQELFDLKAAIDTKDSQTNSQLFNYFRDKAFPNLSARQGGVMPDLVLDMFINGYYLNVFKTQSTDVNRPYQDKDKRGGIFDAVFTRGDQTTLLTARHDLKNKGLNDISTIIKQELTEGRALALSHTYANVSISHVINLWGADFNAEGNLEAIYVTDSDADEKIGMKKYFVGINAHGHVAISAKKIEGENIGAQVLGLFTLSSGKDIWQKLSLEHHHHHH
B9: PRT-461 (protein)
chain: MVTSVWTKGVTPPTDFRKIVDGNIAYYHAPYKAGQGWYDITKTFNGKDDLLCGAATAGNMLHWWFDQNKDQIERYLKEHPEKQKINFNGEQMFDVKEAIDTKDSQTDSKLFEYFKEKAFPYLSTKHLGVFPDHVLDMFINGYRLSLTNHGPTPVKEGSKDPRGGIFDAVFTRGDQSKLLTSRHDFKEKTLKEISDLIKQELTEGKALGLSHTYANVRINHVINLWGADFDSEGNLKAIYVTDSDSNASIGMKKYFVGVNSAGKVAISAKEIKEDNIGAQVLGLFTLSTGQDIWNQTNLEHHHHHH
B10: PRT-509 (protein)
chain: MITSVWTKGVTPPTDFRKIVDGNIAYYHAPYKAGQGWYDITKTFNGKDDLLCGAATAGNMLHWWFDQNKEEIEAYLKKHPEKQKIMFGDQELLDVRKVINTKDSQTNSALFNYFKDKAFPNLSARRLGVMPDLVLDMFINGYYLNVYKTQTTDVNRTYQTKDRRGGIFDAVFTRGDQSKLLTERHDFKEKTLKEISDLIKQELTEGKALGLSHTYANVRINHVINLWGADFDSNGNLEAIYVTDSDSNASIGMKKYFVGVNSAGKVAISAKEIKEDNIGAQVLGLFTLSTGQDIWNQTNLEHHHHHH
B11: PRT-686 (protein)
chain: MQITSVWTKGVTPLTPEQFTYNNEDVIHAPYIANQGWYDITKTFNGKDNLLCGAATAGNMLHWWFDQNKTEIENYLKKHPEKQKIIFNNQELFDLRKAINTKDSQTNSALFNYFRDKAFPNLSARQLGVMPDLVLDMFINGYYLNVFKTQSTDVNRPYQTKDKRGGIFDHVFTRGDQSTLLTARHDLKNKTLNEISDIIKQELTEGKALALSHTYANVSISHVINLWGADFNAEGNLEAIYVTDSDANASIGMKKYFVGVNSHGKVAISAKKIEDENIGAQVLGLFTLSSGQDIWEQLSLEHHHHHH
B12: PRT-469 (protein)
chain: MVTSVWTKGVTPPTDFIKGEDVFHAPYKAGQGWYDITKAFDGGDDLLCGAATAGNMLHWWFDQNKDQIERYLKEHPEKQKINFNGEQMFDVKEAIDTKDSQTNSELFNYFKEKAFPYLSTKHLGVFPDHVLDMFINGYRLSLTNHGPTPVKRQEKDPRGGIFDAVFGRGDQTKLLTSRHDLKNKTLKEISDLIKQELTEGKALGLSHTYANVRINHVINLWGADFDSEGNLKAIYVTDSDSNASIGMKKYFVGVNSAGKVAISAKEIKEDNIGAQVLGLFTLSTGQKIWNKTNLEHHHHHH
B13: PRT-687 (protein)
chain: MQITSVWTKGVTPLTPEQFRYNNEDVIHAPYKPHQGWYDITKTFNGKDNLLCGAATAGNMLHWWFDQNKTEIEAYLKKYPEKQKIIFNNQKLFDLRKAINTKDSQTNSALFNYFRDKAFPNLSARQLGVMPDLVLDMFINGYYLNVFKTQSTDVNRPYQTRDKRGGIFDHVFGRGDQTTLLTARHDLKNKTLNEISQIIKQELSEGKALALSHTYANVSISHVINLWGADFNAEGNLEAIYVTDSDANAKIGMKKYYVGKNAHGKVAISAKKIEGENIGAQVLGLFTLSSGKDIWQKLSLEHHHHHH
B14: PRT-516 (protein)
chain: MITSVWTKGVTPPTDFIKGEDVFHAPYKAGQGWYDITKAFDGGDDLLCGAATAGNMLHWWFDQNKEEIEAYLKKHPEKQKIMFGDQELLDVRKVINTKDSQTNSALFNYFKDKAFPNLSARRLGVMPDLVLDMFINGYYLNVYKTQTTDVNRTYQTKDRRGGIFDAVFTRGDQSKLLTERHDLKNKTLNEISQLIKQELTEGKALGLSHTYANVRINHVINLWGADFDAEGNLEAIYVTDSDSNASIGMKKYFVGVNSAGKVAISAKEIKEDNIGAQVLGLFTLSTGQDIWNQTNLEHHHHHH
B15: PRT-497 (protein)
chain: MVTSVWTKGVTPPTDFRKIVDGNIAYYHAPYKAGQGWYDITKTFNGKDDLLCGAATAGNMLHWWFDQNKEYIEAYLKKHPEKQKIMFGDQELLDVRKAINTKGSQKNSELFNYFRDKAFPNLSARRLGVMPDLVLDMFINGYYLNVTKTQTTDVNRTYQEKDKRGGIFDAVFTRGDQSKLLTSRHDFKEKGLKEISDLIKQELTEGKALGLSHTYANVRINHVINLWGADFDSDGNLKAIYVTDSDSNASIGMKKYFVGVNSAGKVAISAKEIKEDNIGAQVLGLFTLSTGQDIWNQTNLEHHHHHH

Biological target: pooled human IgG (human IgG1, 2, 3 and 4)

| Protein | Enzyme Activity Endpoint Assay (purified): Fab′2 [ng/µL] | Enzyme Activity Endpoint Assay (purified): Fc [ng/µL] | Enzyme Activity Endpoint Assay (purified): IgG [ng/µL] | Enzyme Activity Endpoint Assay (purified): scIgG [ng/µL] |
| --- | --- | --- | --- | --- |
| B1 | 89 | 251 | 96 | 626 |
| B2 | 822 | 473 | 0 | 317 |
| B3 | 187 | 121 | 0 | 70 |
| B4 | 582 | 435 | 39 | 635 |
| B5 | 0 | 37 | 0 | 0 |
| B6 | 0 | 0 | 0 | 0 |
| B7 | 664 | 409 | 33 | 226 |
| B8 | 460 | 216 | 702 | 726 |
| B9 | 399 | 309 | 154 | 298 |
| B10 | 21 | 26 | 0 | 0 |
| B11 | 608 | 355 | 0 | 252 |
| B12 | 41 | 139 | 50 | 248 |
| B13 | 738 | 420 | 0 | 295 |
| B14 | 16 | 23 | 0 | 0 |
| B15 | 0 | 0 | 0 | 0 |
